{"source": "patent US9457082B2", "about": "“Liposome including complex of hydrophobic active ingredient and polypeptide and use of the liposome” (Samsung Electronics Co., Ltd., priority 2013, dated 2016)", "test_system": "HepG2 liver carcinoma cells", "test": "Cytotoxicity, cell viability by CCK-8 kit", "type": "cell-based", "details": "about 5,000 HepG2 cells, 37° C., 46 hours", "method": "The liposomes prepared in the same manner as in Example 1 were incubated with cells to confirm cell proliferation.\nThe liposomes prepared in the same manner as in Example 1 were added in different concentrations to about 5,000 HepG2 liver carcinoma cells, followed by being incubated at a temperature of 37° C. for 46 hours. The viability of the cultured cells was measured using a CCK-8 kit (Dojindo), and the results were shown in FIG. 7 (●: albumin, ▪: complex containing SRF and albumin).", "data": [{"substance": "albumin: albumin alone, control in the cytotoxicity test; Bovine Serum Albumin in Example 1", "values": [{"measurement": "toxicity (cell viability)", "result": "not toxic"}]}]}
